The values that follow come from patent US20200377590A1 (Hoffmann-La Roche, published 2020).

The experiment deals with T1, CD81 (UniProt P60033 1-236, limits assumed).
T1 construct: whole, on cells; also called CD81 receptor
T1 sequence (looked up): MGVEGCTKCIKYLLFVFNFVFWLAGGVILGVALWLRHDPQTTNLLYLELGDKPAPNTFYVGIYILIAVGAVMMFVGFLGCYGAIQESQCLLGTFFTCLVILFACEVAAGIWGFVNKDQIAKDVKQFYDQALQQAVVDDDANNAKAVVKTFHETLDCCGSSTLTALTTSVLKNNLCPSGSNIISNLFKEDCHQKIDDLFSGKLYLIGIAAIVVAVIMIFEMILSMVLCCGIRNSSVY
The experiment in a line: cell ELISA.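 Also: antibody binding to HuH7 cells expressing CD81 versus a CD81-negative HuH7 control line, bound antibody detected by secondary reagent, absorbance at 450 nm with 620 nm reference.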

Changes are numbered by the printed parent chain.

Method: For the binding cell ELISA assay, HuH7-Rluc-H3 (positive cell line expressing CD81) and HuH7-Rluc-L1 (negative control cell line) were propagated in F-12 DMEM medium with 10% FCS at 37° C. and 5% CO₂. On day 1, the cells were trypsinized at approximately 90% confluence and resuspended at 4×10⁵ cells/mL. […] On day 2, the antibody samples to be tested were prepared in a separate polypropylene round bottom plate with a twofold desired concentration with a final volume of 120 μl. All of the assay samples were diluted in cell culture medium. […] After fixation, each well was washed 3 times with 200 μL PBS/0.05% Tween. The secondary incubation step for detection of bound anti-CD81 antibodies was performed for 2 h at room temperature on a reciprocal shaker. […] Each well was washed three times with 200 μL PBS/0.05% Tween to remove unbound antibodies. […] The absorbance was read using the ELISA Tecan reader at 450 nm with 620 nm reference wavelength.

B1: CD81K04 HC GG-02-hVH_1_69 / LC GG-02-hVK_4_1 (antibody, V domains shown)
VH: QVQLVQSGAEVKKPGSSVKVSCKASGYTFSSSWMNWVRQAPGQGLEWMGRIYSGDGDAIYNQKFQGRVTITADESTSTAYMELSSLRSEDTAVYYCAREGKTGDLLLRSWGQGTLVTVSS
VL: DIVMTQSPDSLAVSLGERATINCKSSKSVSTSIYSYMHWYQQKPGQPPKLLIYYASYRESGVPDRFSGSGSGTDFTLTISSLQAEDVAVYYCQHSREFPFTFGQGTKLEIK
notes: human constant region
B1 showed an ELISA data of 0.22.

B2: CD81K04 HC JA_GG-14-hVH_1_3 / LC JA_GG-09-hVK_4_1 (antibody, V domains shown)
VH: B1 VH with S16A, Q62G, Q65K, V68A, E74T, T76A
VL: B1 VL with Y53K, Y57T, Q93E
notes: human constant region
Take B2: the ELISA data was 0.975.

B3: CD81K04 HC JA_GG-13-hVH_1_69 / LC GG-03-hVK_4_1 (antibody, V domains shown)
VH: B1 VH with Y27G, N61A
VL: B1 VL with M37L, H38A
notes: human constant region
For B3, the ELISA data worked out at 0.115.

B4: CD81K04 HC GG-04-hVH_1_69 / LC GG-03-hVK_4_1 (antibody, V domains shown)
VH: B1 VH with V68A
VL: B1 VL with M37L, H38A
notes: human constant region
As for B4, the ELISA data came to 0.162.

B5: CD81K04 HC JA_GG-14-hVH_1_3 / LC GG-03-hVK_4_1 (antibody, V domains shown)
VH: B1 VH with S16A, Q62G, Q65K, V68A, E74T, T76A
VL: B1 VL with M37L, H38A
notes: human constant region
B5: the ELISA data amounted to 0.518.

B6: CD81K04 HC GG-04-hVH_1_69 / LC JA_GG-10-hVK_4_1 (antibody, V domains shown)
VH: B1 VH with V68A
VL: B1 VL with K24R, S25A, Y53K, R58L, Q93E
notes: human constant region
In turn, B6 yielded an ELISA data of 0.762.

B7: CD81K04 HC JA_GG-14-hVH_1_3 / LC GG-02-hVK_4_1 (antibody, V domains shown)
VH: B1 VH with S16A, Q62G, Q65K, V68A, E74T, T76A
VL: B1 VL
notes: human constant region
Regarding B7, the ELISA data was 0.575.

B8: CD81K04 HC JA_GG-14-hVH_1_69-GA / LC JA_GG-08-hVK_4_1 (antibody, V domains shown)
VH: B1 VH with Q62G, Q65K, R67K, V68A
VL: B1 VL with Y53K, R58L, Q93E
notes: human constant region
In turn, B8 returned an ELISA data of 0.836.

B9: CD81K04 HC GG-04-hVH_1_69 / LC JA_GG-08-hVK_4_1 (antibody, V domains shown)
VH: B1 VH with V68A
VL: B1 VL with Y53K, R58L, Q93E
notes: human constant region
Regarding B9, the ELISA data is 0.773.

B10: CD81K04 HC GG-03-hVH_1_69 / LC GG-02-hVK_4_1 (antibody, V domains shown)
VH: B1 VH with N61A
VL: B1 VL
notes: human constant region
The molecule B10 had an ELISA data of 0.44.

B11: CD81K04 HC JA_GG-14-hVH_1_69-GA / LC JA_GG-09-hVK_4_1 (antibody, V domains shown)
VH: B1 VH with Q62G, Q65K, R67K, V68A
VL: B1 VL with Y53K, Y57T, Q93E
notes: human constant region
B11 returned an ELISA data of 0.888.

B12: CD81K04 HC JA_GG-14-hVH_1_69-GA / LC GG-03-hVK_4_1 (antibody, V domains shown)
VH: B1 VH with Q62G, Q65K, R67K, V68A
VL: B1 VL with M37L, H38A
notes: human constant region
In turn, B12 had an ELISA data of 0.243.

B13: CD81K04 HC JA_GG-14-hVH_1_69 / LC GG-03-hVK_4_1 (antibody, V domains shown)
VH: B1 VH with Q62G, Q65K, R67K, V68A
VL: B1 VL with M37L, H38A
notes: human constant region
B13 registered an ELISA data of 0.26.

B14: CD81K04 HC JA_GG-14-hVH_1_69 / LC JA_GG-08-hVK_4_1 (antibody, V domains shown)
VH: B1 VH with Q62G, Q65K, R67K, V68A
VL: B1 VL with Y53K, R58L, Q93E
notes: human constant region
As for B14, the ELISA data is 0.835.

B15: CD81K04 HC JA_GG-13-hVH_1_69 / LC JA_GG-09-hVK_4_1 (antibody, V domains shown)
VH: B1 VH with Y27G, N61A
VL: B1 VL with Y53K, Y57T, Q93E
notes: human constant region
In the case of B15, the ELISA data is 0.776.

B16: CD81K04 HC JA_GG-13-hVH_1_69 / LC JA_GG-08-hVK_4_1 (antibody, V domains shown)
VH: B1 VH with Y27G, N61A
VL: B1 VL with Y53K, R58L, Q93E
notes: human constant region
As to B16, the ELISA data amounted to 0.743.

B17: CD81K04 HC GG-02-hVH_1_69 / LC GG-03-hVK_4_1 (antibody, V domains shown)
VH: B1 VH
VL: B1 VL with M37L, H38A
notes: human constant region
B17 gave an ELISA data of 0.142.

B18: CD81K04 HC JA_GG-14-hVH_1_69 / LC JA_GG-09-hVK_4_1 (antibody, V domains shown)
VH: B1 VH with Q62G, Q65K, R67K, V68A
VL: B1 VL with Y53K, Y57T, Q93E
notes: human constant region
With B18, the ELISA data came to 0.913.

B19: CD81K04 HC JA_GG-14-hVH_1_3 / LC JA_GG-08-hVK_4_1 (antibody, V domains shown)
VH: B1 VH with S16A, Q62G, Q65K, V68A, E74T, T76A
VL: B1 VL with Y53K, R58L, Q93E
notes: human constant region
For B19, the ELISA data is 0.953.

B20: CD81K04 HC GG-04-hVH_1_69 / LC JA_GG-09-hVK_4_1 (antibody, V domains shown)
VH: B1 VH with V68A
VL: B1 VL with Y53K, Y57T, Q93E
notes: human constant region
As to B20, the ELISA data is 0.918.

B21: CD81K04 HC JA_GG-14-hVH_1_69-GA / LC GG-02-hVK_4_1 (antibody, V domains shown)
VH: B1 VH with Q62G, Q65K, R67K, V68A
VL: B1 VL
notes: human constant region
Molecule B21 registered an ELISA data of 0.211.

B22: CD81K04 HC JA_GG-13-hVH_1_69 / LC JA_GG-10-hVK_4_1 (antibody, V domains shown)
VH: B1 VH with Y27G, N61A
VL: B1 VL with K24R, S25A, Y53K, R58L, Q93E
notes: human constant region
The molecule B22 had an ELISA data of 0.613.

B23: CD81K04 HC GG-02-hVH_1_69 / LC GG-04-hVK_4_1 (antibody, V domains shown)
VH: B1 VH
VL: B1 VL with M37L, H38A, Y57T, F100Y
notes: human constant region
Take B23: the ELISA data came to 0.075.

B24: CD81K04 HC JA_GG-14-hVH_1_69 / LC JA_GG-10-hVK_4_1 (antibody, V domains shown)
VH: B1 VH with Q62G, Q65K, R67K, V68A
VL: B1 VL with K24R, S25A, Y53K, R58L, Q93E
notes: human constant region
Molecule B24 showed an ELISA data of 0.77.

B25: CD81K04 HC GG-03-hVH_1_69 / LC GG-03-hVK_4_1 (antibody, V domains shown)
VH: B1 VH with N61A
VL: B1 VL with M37L, H38A
notes: human constant region
Turning to B25, the ELISA data turned out to be 0.165.

B26: CD81K04 HC GG-02-hVH_1_69 / LC JA_GG-09-hVK_4_1 (antibody, V domains shown)
VH: B1 VH
VL: B1 VL with Y53K, Y57T, Q93E
notes: human constant region
For the molecule B26, the ELISA data worked out at 0.783.

B27: CD81K04 HC JA_GG-14-hVH_1_69 / LC GG-02-hVK_4_1 (antibody, V domains shown)
VH: B1 VH with Q62G, Q65K, R67K, V68A
VL: B1 VL
notes: human constant region
Molecule B27 came in with an ELISA data of 0.235.

B28: CD81K04 HC GG-03-hVH_1_69 / LC JA_GG-09-hVK_4_1 (antibody, V domains shown)
VH: B1 VH with N61A
VL: B1 VL with Y53K, Y57T, Q93E
notes: human constant region
For the molecule B28, the ELISA data is 0.832.

B29: CD81K04 HC GG-03-hVH_1_69 / LC JA_GG-08-hVK_4_1 (antibody, V domains shown)
VH: B1 VH with N61A
VL: B1 VL with Y53K, R58L, Q93E
notes: human constant region
With B29, the ELISA data turned out to be 0.815.

B30: CD81K04 HC GG-05-hVH_1_18 / LC JA_GG-08-hVK_4_1 (antibody, V domains shown)
VH: B1 VH with S16A, N61A, F64L, I70M, A72T, E74T, S84R, E89D
VL: B1 VL with Y53K, R58L, Q93E
notes: human constant region
B30 gave an ELISA data of 0.881.

B31: CD81K04 HC JA_GG-14-hVH_1_3 / LC GG-04-hVK_4_1 (antibody, V domains shown)
VH: B1 VH with S16A, Q62G, Q65K, V68A, E74T, T76A
VL: B1 VL with M37L, H38A, Y57T, F100Y
notes: human constant region
In turn, B31 registered an ELISA data of 0.177.

B32: CD81K04 HC GG-05-hVH_1_18 / LC JA_GG-09-hVK_4_1 (antibody, V domains shown)
VH: B1 VH with S16A, N61A, F64L, I70M, A72T, E74T, S84R, E89D
VL: B1 VL with Y53K, Y57T, Q93E
notes: human constant region
As to B32, the ELISA data was 0.889.

B33: CD81K04 HC JA_GG-13-hVH_1_69 / LC GG-02-hVK_4_1 (antibody, V domains shown)
VH: B1 VH with Y27G, N61A
VL: B1 VL
notes: human constant region
As to B33, the ELISA data worked out at 0.172.

B34: CD81K04 HC JA_GG-14-hVH_1_3 / LC JA_GG-10-hVK_4_1 (antibody, V domains shown)
VH: B1 VH with S16A, Q62G, Q65K, V68A, E74T, T76A
VL: B1 VL with K24R, S25A, Y53K, R58L, Q93E
notes: human constant region
B34 returned an ELISA data of 0.882.

B35: CD81K04 HC GG-03-hVH_1_69 / LC JA_GG-10-hVK_4_1 (antibody, V domains shown)
VH: B1 VH with N61A
VL: B1 VL with K24R, S25A, Y53K, R58L, Q93E
notes: human constant region
B35 came in with an ELISA data of 0.691.

B36: CD81K04 HC GG-02-hVH_1_69 / LC JA_GG-08-hVK_4_1 (antibody, V domains shown)
VH: B1 VH
VL: B1 VL with Y53K, R58L, Q93E
notes: human constant region
Regarding B36, the ELISA data was 0.792.

B37: CD81K04 HC GG-05-hVH_1_18 / LC GG-04-hVK_4_1 (antibody, V domains shown)
VH: B1 VH with S16A, N61A, F64L, I70M, A72T, E74T, S84R, E89D
VL: B1 VL with M37L, H38A, Y57T, F100Y
notes: human constant region
B37 displayed an ELISA data of 0.187.

B38: CD81K04 HC JA_GG-13-hVH_1_69 / LC GG-04-hVK_4_1 (antibody, V domains shown)
VH: B1 VH with Y27G, N61A
VL: B1 VL with M37L, H38A, Y57T, F100Y
notes: human constant region
Molecule B38 returned an ELISA data of 0.073.

B39: CD81K04 HC GG-04-hVH_1_69 / LC GG-04-hVK_4_1 (antibody, V domains shown)
VH: B1 VH with V68A
VL: B1 VL with M37L, H38A, Y57T, F100Y
notes: human constant region
Regarding B39, the ELISA data was 0.141.

B40: CD81K04 HC GG-03-hVH_1_69 / LC GG-04-hVK_4_1 (antibody, V domains shown)
VH: B1 VH with N61A
VL: B1 VL with M37L, H38A, Y57T, F100Y
notes: human constant region
As for B40, the ELISA data was determined as 0.07.

B41: CD81K04 HC GG-04-hVH_1_69 / LC GG-02-hVK_4_1 (antibody, V domains shown)
VH: B1 VH with V68A
VL: B1 VL
notes: human constant region
For B41, the ELISA data was 0.27.

B42: CD81K04 HC GG-02-hVH_1_69 / LC JA_GG-10-hVK_4_1 (antibody, V domains shown)
VH: B1 VH
VL: B1 VL with K24R, S25A, Y53K, R58L, Q93E
notes: human constant region
Molecule B42 gave an ELISA data of 0.643.

B43: CD81K04 HC GG-05-hVH_1_18 / LC GG-02-hVK_4_1 (antibody, V domains shown)
VH: B1 VH with S16A, N61A, F64L, I70M, A72T, E74T, S84R, E89D
VL: B1 VL
notes: human constant region
In turn, B43 had an ELISA data of 0.664.
